Data as given in publication PMC11151092 (Molecular Biology of the Cell, 2024).

B1: 3Q-SNARE complex (QaQbQc) on proteoliposomes (complex)
chain 1: MSFFDIEAQSSKGNSQQEPQFSTNQKTKELSNLIETFAEQSRVLEKECTKIGSKRDSKELRYKIETELIPNCTSVRDKIESNILIHQNGKLSADFKNLKTKYQSLQQSYNQRKSLFPLKTPISPGTSKERKDIHPRTEAVRQDPESSYISIKVNEQSPLLHNEGQHQLQLQEEQEQQQQGLSQEELDFQTIIHQERSQQIGRIHTAVQEVNAIFHQLGSLVKEQGEQVTTIDENISHLHDNMQNANKQLTRADQHQRDRNKCGKVTLIIIIVVCMVVLLAVLS
chain 2: MSSLLISYESDFKTTLEQAKASLAEAPSQPLSQRNTTLKHVEQQQDELFDLLDQMDVEVNNSIGDASERATYKAKLREWKKTIQSDIKRPLQSLVDSGDRDRLFGDLNASNIDDDQRQQLLSNHAILQKSGDRLKDASRIANETEGIGSQIMMDLRSQRETLENARQTLFQADSYVDKSIKTLKTMTRRLVANKFISYAIIAVLILLILLVLFSKFK
chain 3: MAANSVGKMSEKLRIKVDDVKINPKYVLYGVSTPNKRLYKRYSEFWKLKTRLERDVGSTIPYDFPEKPGVLDRRWQRRYDDPEMIDERRIGLERFLNELYNDRFDSRWRDTKIAQDFLQLSKPNVSQEKSQQHLETADEVGWDEMIRDIKLDLDKESDGTPSVRGALRARTKLHKLRERLEQDVQKKSLPSTEVTRRAALLRSLLKECDDIGTANIAQDRGRLLGVATSDNSSTTEVQGRTNNDLQQGQMQMVRDQEQELVALHRIIQAQRGLALEMNEELQTQNELLTALEDDVDNTGRRLQIANKKARHFNNSA
B2: Sec18 (enzyme)
chain: MFKIPGFGKAAANHTPPDMTNMDTRTRHLKVSNCPNNSYALANVAAVSPNDFPNNIYIIIDNLFVFTTRHSNDIPPGTIGFNGNQRTWGGWSLNQDVQAKAFDLFKYSGKQSYLGSIDIDISFRARGKAVSTVFDQDELAKQFVRCYESQIFSPTQYLIMEFQGHFFDLKIRNVQAIDLGDIEPTSAVATGIETKGILTKQTQINFFKGRDGLVNLKSSNSLRPRSNAVIRPDFKFEDLGVGGLDKEFTKIFRRAFASRIFPPSVIEKLGISHVKGLLLYGPPGTGKTLIARKIGTMLNAKEPKIVNGPEILSKYVGSSEENIRNLFKDAEAEYRAKGEESSLHIIIFDELDSVFKQRGSRGDGTGVGDNVVNQLLAKMDGVDQLNNILVIGMTNRKDLIDSALLRPGRFEVQVEIHLPDEKGRLQIFDIQTKKMRENNMMSDDVNLAELAALTKNFSGAEIEGLVKSASSFAINKTVNIGKGATKLNTKDIAKLKVTREDFLNALNDVTPAFGISEEDLKTCVEGGMMLYSERVNSILKNGARYVRQVRESDKSRLVSLLIHGPAGSGKTALAAEIALKSGFPFIRLISPNELSGMSESAKIAYIDNTFRDAYKSPLNILVIDSLETLVDWVPIGPRFSNNILQMLKVALKRKPPQDRRLLIMTTTSAYSVLQQMDILSCFDNEIAVPNMTNLDELNNVMIESNFLDDAGRVKVINELSRSCPNFNVGIKKTLTNIETARHDEDPVNELVELMTQSA
B3: R-SNARE Nyv1 (natural protein)
chain: MKRFNVSYVEVIKNGETISSCFQPFQKNENYGTITSANEQITPVIFHNLIMDMVLPKVVPIKGNKVTKMSMNLIDGFDCFYSTDDHDPKTVYVCFTLVDMPKILPIRILSGLQEYESNATNELLSSHVGQILDSFHEELVEYRNQTLNSSGNGQSSNGNGQNTISDIGDATEDQIKDVIQIMNDNIDKFLERQERVSLLVDKTSQLNSSSNKFRRKAVNIKEIMWWQKVKNITLLTFTIILFVSAAFMFFYLW
B4: Sec17 (natural protein)
chain: MSDPVELLKRAEKKGVPSSGFMKLFSGSDSYKFEEAADLCVQAATIYRLRKELNLAGDSFLKAADYQKKAGNEDEAGNTYVEAYKCFKSGGNSVNAVDSLENAIQIFTHRGQFRRGANFKFELGEILENDLHDYAKAIDCYELAGEWYAQDQSVALSNKCFIKCADLKALDGQYIEASDIYSKLIKSSMGNRLSQWSLKDYFLKKGLCQLAATDAVAAARTLQEGQSEDPNFADSRESNFLKSLIDAVNEGDSEQLSEHCKEFDNFMRLDKWKITILNKIKESIQQQEDDLL

Assays:
[1] = target: HOPS (homotypic fusion and vacuole protein sorting complex) (S. cerevisiae, UniProt P12868;Q03308;P27801;P20795;Q07468;P38959); test: proteoliposome floatation
[2] = target: four-SNARE bundle with GST-Qa (GST-Qa, R, Qb, Qc) in detergent (S. cerevisiae, UniProt Q12241;Q12255;Q04338;P32912); test: pull-down
[3] = target: 4-SNARE complex (R, Qa, Qb, Qc) on proteoliposomes (S. cerevisiae, UniProt Q12255;Q12241;Q04338;P32912); test: proteoliposome floatation
[4] = target: B1; test: proteoliposome floatation
[5] = target: T1, Qa-SNARE Vam3 in proteoliposomes (S. cerevisiae, UniProt Q12241 1-283); test: co-IP
T1 sequence: B1 chain 1

Row | Binder | binding result [1] | binding result [2] | binding result [3] | binding result [4] | binding result [5]
1 | B1 | binds | – | – | – | –
2 | B2 | binds | binds | binds | binds | –
3 | B3 | binds | – | – | – | binds
4 | B4 | – | binds | – | – | –
